Results as given in doi:10.1101/2024.03.21.586151.

Biological target: CaM(C110)D with an IAEDANS probe coupled to position 110 (UniProt P0DP23)
Experiment: FRET or BRET

- rate of FRET change after EGTA, fast phase (release of Ca^2+ from the N-domain): 5.8 s⁻¹
Substance: CKIIp with a C-terminal Gly-Cys extension labeled with DDPM (peptide)
